The results in this text go back to a protein production outcome set (Wang et al. 2014).
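Further: failed if final PepcDB status was selected cloned or expressed and not failed if soluble or beyond.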

This data set is described as follows: label from the status in PepcDB records.
On to “MFDSVLQQSMQQWLETSLGQYVLEQEQRYFDRVVTDIFGYNATQIGFSGFDFLRNNRMPFKFAFGVRDGASVYAHPHFLPIKSSSIDLVLLPHTLEFNSNPHQILREAHRVLIPEGKVIISGFNPFSLWGMRQRMAKSKTDFPWCGRFIALPRMQDWLELHNFEIVAGQFGCYVPPCTREKWLSRLRFMEAAGDRWWPIAGGVYFLQAVKHECGLHIITPRWEDSPAKRGTVVVPQIERGHRMNNLEVSTVPWREKAGGGLIENRKYGVQYSVNNRDV”, for which the protein production entry is “failed”.
For “MVEMNKRGQFFIIGGVILSIGLILFFLLGFNSYTSDGSYLTVFKMKDVKNSIESCLINSLTSNSNLSKNLDMLKNNYKDEGIEINYKKIIFSNIRYEAKNLTFNFSLYNGNFSYNISNYGFGGAFNGSLNVSNYVFSKNLLLNISENGSVTGSFNITGSYVNVFVYDRFGNLILNETIYNNSNEKSLYYYILNVSKEGILLYLLWQRMFLTTHWQKMYPL”, the protein production entry was “failed”.
To “IGIWFTGTDGRYHFVNKTFCNLVGIEEEDMLNTPSSNLAELLGSEIAHNCLDSDRAALGQDLAHVSYETIPRLNAKPYLLEITKVKLKNTR” belongs “failed”; to “MKALIFAAGFGERMRPLTEHTPKPLLSVGGTPLIVWHLRKLAALGVDEVVINTSWLAEQFPQVLGDGSAFGLRLTYSYEGATPLETGGGMLHALPLLGDAPFLLVNGDIWTDFDFARLSHAPDGLAQLVLVDQPSYATRADFALDADGNVRADLPASLTYSGIGMYRPALLRDWQSVIGQLPEQPCTAPRFALAPILRAQMTARLINGIHHSGRWTDVGTPQRLAELDAQLLRDGS”, “failed”; to “MRILSGMRPTGKLHIGHLVGALENWVKLQEEGNECFYFVADWHALTTHYDDVSKLKEYTRDLVRGFLACGIDPEKSVIFVQSGVKEHAELALLFSMIVSVSRLERVPTYKEIKSELNYKDLSTAGFLIYPVLQAADILIYKAEGVPVGEDQVYHIELTREIARRFNYLYDEVFPEPEAILSRVPKLPGTDGRKMSKSYGNIINLEISEKELEQTILRMMTDPARVRRSDPGNPENCPVWKYHQAFDISEEESKWVWEGCTTASIGCVDCKKLLLKNMKRKLAPIWENFRKIDEDPHYVDDVIMEGTKKAREVAAKTMEEVRRAMNLMF”, “not failed”.
To “MTNVLYQHGTLGTLMAGLLEGTATINELLEHGNLGIATLTGSDGEVIFLDGKAYHANEHKEFIELKGDEKVPYASITNFKASKTFPLQQLSQDDVFAQIKNEMLSENLFSAVKIYGTFKHMHVRMMPAQQPPYTRLIDSARRQPEEKRQDIRGAIVGFFTPELFHGVGSAGFHIHFADDERAYGGHVLDFEVDDVVVEIQNFETFQQHFPVNNETFVKAKIDYKDVAEEIREAE” belongs “not failed”.
To “MNRLRTSLTALAAAITLSGLANAATRYEELANQPFEKGFPTETAARNLIDELVFQRAVQSYLWALPAINIWSMKEASEKEFGAGYNILPTWKKRINAKTLVTTPNSDLVYAMSYLDLQKYGPLVVEAPPGVQGMFDDFFQRPIVGPTIDGKTWRGDVGLAGPDKGKGGTYVLLPPDYKGPEPTEGYVYRSRTNNVFLFWRTFFKDPKDLSVPVAEVERTKIYPLGKKDEALPMQFPDATGAPINMLFPEDGRYFDMLSRFIDAEAVDPADMDMRGFLHTLGIEKGKPFAPDAQRRKLLDEAARTAFKMSKVVTSHLLLKEPGGLYYKDRQYVNTFAGENTEFQSSGSFTNLEQRVAFFTSAYSDSPGMVMNMVGAGAKYPATTRDADGKFLDGAQTYKLNLPANVPAALFWSVTAYDNLTASGLDNGQPFPSLNQMDKPVQNSDGSTDIYFGPKSPGEGKNWIKTVPDKGFLVIVRLYGPKQAFFDQSWKPSDLLKQ” belongs “failed”; to “MTDYGEEQRNELEALESIYPDSFTVLSENPPSFTITVTSEAGENDETVQTTLKFTYSEKYPDEAPLYEIFSQENLEDNDVSDILKLLALQAEENLGMVMIFTLVTAVQEKLNEIVDQIKTR”, “not failed”.
As for “MHSLARRALHTCNVPRDLNPVTFCDTAGEHPDRVGLDSNAAEAVWRSVEALYRTGVHPGIQLSLRYRGEQVLHRSIGHARGNGPHDPASLPRIPMTTDTPICFFSASKAVTALLMHMLSEQGLVNLMDPVSYYCPEFARNGKRTITVHQILSHRGGIPAIPRETPIDVLWDRDEIWRLLCAAKPVEVDGAKVAYHAITGGFVLQRVLEKVTGDTIESYLDRYLRRPMGMKWFTYGIAPEHLHELASNYATGPTPRFPVSWVVNRALGGDIRTVEKVTNDPRFQEAVIPAGNLCGTAEEMGRFFQMMLNGGSWDGKRICSELTVRRAIQQFGSLQMDRTMLVPMRFSAGMMLGSNPVGLWGQQSRYAFGHVGLINKLCWADPARDISVSLLNTGFPIVGHHLPALARFVYTVCKQFPVLPENQRRLVAA”, the protein production result is “failed”.
For “MRSETVSTHTKPVRPEPPAPAAEVPAGAFPPGQERDHDTRPSAPPRDQSPPPAPEADSRSAARPAPPTHPGTSSTVWVRRRLARLGAQRGTTMNPVLEPLVKTVRATHPKADIRLIERAYDVAAHYHRSQKRKSGDPYITHPLAVATILAELGMQEATIAAGLLHDTVEDTEYTLDQLRSDFGDEIAELVDGVTKLDKVKYGEATQAETVRKMVVAMARDIRVLVIKLCDRLHNMRTLRYLPQAKREKKARETLEIYAPLAHRLGMNTIKWELEDLAFATLYPKRFDEIARLVAERAPRRDVYLQEVIEIVSADLREAKIKATVRGRPKHYYSIYQKMIARNVGFDEIYDLVGIRVIVDSVRDCYAALGIIHARWNPVPGRFKDYIAMPKFNMYQSLHTTVIGPEGSPVELQIRTRAMHRRAEYGIAAHWKYKEERNNGGKAKGASTDMAWLRQLIDWQQETKDPGEFLESLRFDLSVQEVFVFTPRGDVIALPQGATPVDFAYAVHTEVGHRTVGARVNGRLVPLDSELHNGETVEIITAKTDDAGPSRDWLDFVKSARARNKIRQWFTKERREAAIEQGKEAIAKVMRKQELPVQRLFTSESLIALAHDLRYRDLDALYAAVGENQISAHKVVEKLIESVGSLDNNEEDIAEATTPIRVPRKRPTGNPGVVVQGDPDVWVRLSKCCTPVPGDAIIGFVTRGAGVSVHRDDCGNVKHLDPDRLVQVEWQPTGNSMFLVALQIEALDRTRLLSDITRVLSDQHVNILSATVQTTRDRVALSRFTFEMADPAHLGHVLKAVRSVDGVYDVYRVRN”, the protein production result was “failed”.
To “MNAIWIAVAAVSLLGLAFGAILGYASRRFAVEDDPVVEKIDEILPQSQCGQCGYPGCRPYAEAISCNGEKINRCAPGGEAVMLKIAELLNVEPQPLDGEAQEITPARMVAVIDENNCIGCTKCIQACPVDAIVGATRAMHTVMSDLCTGCNLCVDPCPTHCISLQPVAETPDSWKWDLNTIPVRIIPVEHHA” belongs “failed”; to “MGHHHHHHSHMAGTVVLDDVELREAQRDYLDFLDDEEDQGIYQSKVRELISDNQYRLIVNVNDLRRKNEKRANRLLNNAFEELVAFQRALKDFVASIDATYAKQYEEFYVGLEGSFGSKHVSPRTLTSCFLSCVVCVEGIVTKCSLVRPKVVRSVHYCPATKKTIERRYSDLTTLVAFPSSSVYPTKDEENNPLETEYGLSVYKDHQTITIQEMPEKAPAGQLPRSVDVILDDDLVDKAKPGDRVQVVGTYRCLPGKKGGYTSGTFRTVLIACNVKQMS”, “not failed”; to “MWYYFQPKRLCHNSFMIPEKLLTYTKTIFEYSHSTVYIKDKNFHYQYMNNRGLKQLQLQEKDIMGMPDKALPFGKYAHFYNSHDYSAMEEIIYFQLDDCITKNGEKIFALSHKLPLKDEDGKTHGVIGFTKFMNLHQLMNNLNSKNTFLTPNLKINVNVDDWLKTTINLSRREMEVLYYFLQGKSIKLIAPLLHITERTVIFHLNNIKSKWGCYNKEDIYTKSFEKGLKNLTIIWDLLAMRS”, “failed”.
As for “MVLYFLSSIIIAPIKTGDKAPQVDECCLKTVSDLTFFTNNEKYIWPVPDFCVRMELLAFEAIPQLSKKIIEDIPGAYQGCPRMCKVKFKKNHLKGFTLDTIYAELGTTHVIDCIVTPRIEEQELMKTIMEEEDDDDVADVVVESWLKRHKEGRLIMFDELYQQDIQTLKITSSR”, the protein production entry is given as “failed”.
Regarding “MNQNKITAGGLEFLVRFAAPTDRLKINDLMIDTARWLKESGSTQWSDILHGFDVHNIEQRIELGEVALFETEAGALAGAMIIRKTPSDWDTDLWEDLAIDKAYYLHRIMVSRAFSGISLSKQMIYFAEKLGIEMSVPFIRLDCIESNETLNQMYVRYGFQFSGKKNGFYLYQKELSQK”, the protein production entry is “not failed”.
